Assay results reported in US20070184522A1, “Cell death modulation via antagonists of Fasl and Fas activation” (University of Pittsburgh of the Commonwealth System of …, priority 2004, published 2007).

T1: Fas trimerization in Jurkat cells (Homo sapiens, UniProt P25445)
T1 construct: endogenous in cells; host or cells: Jurkat
T1 sequence (P25445 26-335): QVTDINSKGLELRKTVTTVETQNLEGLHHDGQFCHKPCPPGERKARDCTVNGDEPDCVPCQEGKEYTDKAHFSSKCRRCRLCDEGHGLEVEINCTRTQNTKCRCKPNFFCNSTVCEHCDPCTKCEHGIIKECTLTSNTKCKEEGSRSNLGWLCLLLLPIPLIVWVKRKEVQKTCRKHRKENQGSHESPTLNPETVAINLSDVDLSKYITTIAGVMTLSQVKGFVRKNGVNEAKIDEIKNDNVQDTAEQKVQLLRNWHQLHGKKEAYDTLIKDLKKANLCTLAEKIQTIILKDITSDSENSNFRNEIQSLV


Assays:
[1] = target: CFP-tagged and YFP-tagged Fas expressed in Hepa 1-6 cells; experiment: cell-based or functional assay
[2] = target: endogenous Fas of Jurkat cells (human) (UniProt P25445); experiment: cell-based or functional assay
[3] = target: T1, Fas trimerization in Jurkat cells; experiment: Chemical crosslinking (DTSSP) and Western blot of Fas trimerization in Jurkat cells; type: cell-based; conditions: Fas-Ligand and DTSSP
Description: FIG. 3a presents data collected from Jurkat cells (1×10^6) treated with 2 μg/ml of Fas Ligand with or without AlphaMet for 30 minutes on ice. Cells were washed with PBS twice and then incubated with 2 mM of DTSSP in PBS for 30 minutes. The crosslinking process was stopped by 20 mM of Tris (pH 7.5) for another 30 minutes. Cells were spun down and washed with PBS twice and lyzed in RIPA buffer. Cell lysates were subjected to SDS-PAGE under non-reducing or reducing conditions (FIG. 3b) and Western blot analysis using the mouse monoclonal antibody against human Fas. FIG. 3c depicts the quantification of the data in FIG. 3a by densitometry. The data are the mean and SE from three different independent crosslinking and Western blot experiments. […] Frame A: Acceptor CFP-Fas image; Frame B: Acceptor pre-bleach CFP-Fas image; Frame C: Acceptor post-bleach image. Frame D: Donor YFP-Fas image; Frame E: Donor pre-bleach image; Frame F: […]. The CFP-Fas strength in the selected region obtained a gain of 19.3% efficiency in the presence of FasL for 15 minutes. No FRET was observed without FasL. […] FIG. 3e depicts the results of experiments in which CFP-tagged Fas or CFP control vector were transiently expressed in Hepa 1-6 Cells (3×10^5). […] Cells were fixed and analyzed by fluorescence microscopy. […]

Jurkat cells = experiment: Fas-ligand induced apoptosis in Jurkat cells (Trypan Blue, flow cytometry); type: cell-based, human
Description: For FIG. 4a, Jurkat cells (1.5×10^5) were overnight treated in triplicate with 5 ng/ml of crosslinked human Fas ligand with or without 5 μg/ml of recombinant AlphaMet or 1 μg/ml of the indicated polypeptides. Percent apoptosis was determined by Trypan Blue staining using a hemocytometer. The data are representative and were repeated at least four times. […] The 17 kDa fragment of cleaved Caspase 3 is visualized by this antibody. The blot was reprobed for β-actin as a loading control. For FIG. 4c, serum deprived Hepa 1-6 cells (3×10^5) were overnight treated with 1 μg/ml of crosslinked mouse Fas ligand with or without AlphaMet or the indicated polypeptide. Media were collected and centrifuged to pellet the dead cells. […] The data in FIG. 4c represents three independent experiments.
Apoptosis assay. Pre-washed Jurkat cells in RPMI 1640 medium containing 1% FBS were inoculated in 96-wells at a density of 10^5 cells per well. Apoptosis was induced by cross-linked human Fas-ligand (R&D Systems) at a concentration of 0.5 ng/ml or Anti-Fas (human, activating) clone CH11 (Upstate biotechnology) at a concentration of 500 ng /ml. Hepa 1-6 cells were overnight starved before induction of apoptosis. The apoptosis in Hepa 1-6 was induced by anti-mouse Fas antibody Jo2 (200 ng/ml) or human recombinant Fas-ligand. The extent of cell viability and apoptosis was determined by several methods such as Trypan Blue stain, flow cytometry, LDH assay, and Hoechst staining.

[4] = tested on: Fas self-assembly in Hepa 1-6 cells; experiment: FRET assay of CFP-Fas/YFP-Fas in transfected Hepa 1-6 cells; type: cell-based; conditions: Hepa 1-6, FasL for 15 minutes
Description: FIG. 3a presents data collected from Jurkat cells (1×10^6) treated with 2 μg/ml of Fas Ligand with or without AlphaMet for 30 minutes on ice. Cells were washed with PBS twice and then incubated with 2 mM of DTSSP in PBS for 30 minutes. The crosslinking process was stopped by 20 mM of Tris (pH 7.5) for another 30 minutes. Cells were spun down and washed with PBS twice and lyzed in RIPA buffer. Cell lysates were subjected to SDS-PAGE under non-reducing or reducing conditions (FIG. 3b) and Western blot analysis using the mouse monoclonal antibody against human Fas. FIG. 3c depicts the quantification of the data in FIG. 3a by densitometry. The data are the mean and SE from three different independent crosslinking and Western blot experiments. […] Frame A: Acceptor CFP-Fas image; Frame B: Acceptor pre-bleach CFP-Fas image; Frame C: Acceptor post-bleach image. Frame D: Donor YFP-Fas image; Frame E: Donor pre-bleach image; Frame F: Donor pre-bleach image. […] Cells were fixed and analyzed by fluorescence microscopy. […]
FRET assay. […] Fret efficiency (E) was calculated as FRETeff=(Dpost−Dpre)/Dpost (Dpost and Dpre are the mean emission intensity […] YFP bleaching).
Fluorescence protein tagged Fas molecules and Hepa 1-6 cells were used for these experiments. […] In these experiments the percent of Fas capping was also determined.

[5] = tested on: Fas capping in Hepa 1-6 cells; experiment: Fas capping of fluorescent protein tagged Fas in Hepa 1-6 cells; type: cell-based; conditions: Hepa 1-6, 30 minutes treatment
Description: FIG. 3a presents data collected from Jurkat cells (1×10^6) treated with 2 μg/ml of Fas Ligand with or without AlphaMet for 30 minutes on ice. Cells were washed with PBS twice and then incubated with 2 mM of DTSSP in PBS for 30 minutes. The crosslinking process was stopped by 20 mM of Tris (pH 7.5) for another 30 minutes. Cells were spun down and washed with PBS twice and lyzed in RIPA buffer. Cell lysates were subjected to SDS-PAGE under non-reducing or reducing conditions (FIG. 3b) and Western blot analysis using the mouse monoclonal antibody against human Fas. FIG. 3c depicts the quantification of the data in FIG. 3a by densitometry. The data are the mean and SE from three different independent crosslinking and Western blot experiments. […] Frame A: Acceptor CFP-Fas image; Frame B: Acceptor pre-bleach CFP-Fas image; Frame C: Acceptor post-bleach image. Frame D: Donor YFP-Fas image; Frame E: Donor pre-bleach image; Frame F: […]. The CFP-Fas strength in the selected region obtained a gain of 19.3% efficiency in the presence of FasL for 15 minutes. No FRET was observed without FasL. […] FIG. 3e depicts the results of experiments in which CFP-tagged Fas or CFP control vector were transiently expressed in Hepa 1-6 Cells (3×10^5). Cells were treated with 1 μg/ml of Fas ligand or 100 ng/ml of Jo2 with or without 5 μg/ml of AlphaMet or 1 μg/ml of YLGA 12 mer for 30 minutes on ice. Cells were fixed and analyzed by fluorescence microscopy. Frame A: AlphaMet treatment only, no FasL; Frame B: Fas ligand treatment only; Frame C: Fas ligand and AlphaMet treatment; Frame D: Fas ligand and 12 mer YLGA; Frame E: Jo2 treatment only and Frame F: Jo2 and AlphaMet treatment.
Fluorescence protein tagged Fas molecules and Hepa 1-6 cells were used for these experiments. These cells were transiently co-transfected with CFP and YFP chimeric Fas expression vectors using the lipofectamine 2000 method (Invitrogen). After 24 hours of transfection, about 50% of the cells were fluorescing. The cells were treated by Fas-ligand in the presence or absence of AlphaMet for 30 minutes. Treated cells were then fixed with cold methanol and subjected to FRET analysis. Cells were considered positive if FRET efficiency was over 10%. FRET phenomenon was observed only in cells that were treated with Fas-ligand. […] In these experiments the percent of Fas capping was also determined.

Molecule	FRET efficiency between CFP-Fas and YFP-Fas [1] [%]	percent of fluorescent cells showing Fas capping [1] [%]	Fas trimerization (DTSSP crosslinking, Western blot, densitometry) [2] [fold]	intensity of trimeric Fas complex versus ligand unstimulated crosslinked cells [3]	death rate (Jurkat cells; Fas-ligand overnight, AlphaMet 5 μg/ml, Trypan Blue)	sub-G1 (apoptotic) population (Jurkat cells; Propidium Iodide flow cytometry, Fas-ligand) [%]	FRET efficiency gain [4] [%]	fluorescent cells showing Fas capping [5] [%]
soluble Fas Ligand (recombinant FasL)	19.3	20	3	–	–	–	–	–
FasL: recombinant soluble Fas Ligand, cognate ligand of Fas, used to induce apoptosis (protein) QLFHLQKELAELRESTSQMHTASSLEKQIGHPSPPPEKKELRKVAHLTGKSNSRSMPLEWEDTYGIVLLSGVKYKKGGLVINETGLYFVYSKVYFRGQSCNNLPLSHKVYMRNSKYPQDLVMMEGKMMSYCTTGQMWARSSYLGAVFNLTSADHLYVNVSELSLVNFEESQTFFGLYKL	–	–	–	about 3 fold	about 50%	48	19.3	20
